According to paper PMC8464079:

How the values were obtained:
Experiment in all cases: fluorescence polarization
MUT-4G = biological target: T1, MUT-4G (Caenorhabditis elegans, UniProt Q09487 172-535, N318S;H319N;Q322E)
T1 sequence: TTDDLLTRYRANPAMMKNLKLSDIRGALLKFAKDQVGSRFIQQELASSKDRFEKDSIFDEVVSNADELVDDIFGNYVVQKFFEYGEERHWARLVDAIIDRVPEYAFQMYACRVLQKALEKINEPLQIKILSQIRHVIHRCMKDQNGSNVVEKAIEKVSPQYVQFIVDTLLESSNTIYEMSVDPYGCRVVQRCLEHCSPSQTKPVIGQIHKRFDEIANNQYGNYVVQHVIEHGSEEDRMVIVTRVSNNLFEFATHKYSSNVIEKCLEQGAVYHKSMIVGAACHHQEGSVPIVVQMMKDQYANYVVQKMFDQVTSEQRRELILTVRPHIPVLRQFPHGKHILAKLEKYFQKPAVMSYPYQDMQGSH

MUT-8G = biological target: T2, MUT-8G (Caenorhabditis elegans, UniProt Q09487 172-535, N472S;Y473N;Q476E)
T2 sequence: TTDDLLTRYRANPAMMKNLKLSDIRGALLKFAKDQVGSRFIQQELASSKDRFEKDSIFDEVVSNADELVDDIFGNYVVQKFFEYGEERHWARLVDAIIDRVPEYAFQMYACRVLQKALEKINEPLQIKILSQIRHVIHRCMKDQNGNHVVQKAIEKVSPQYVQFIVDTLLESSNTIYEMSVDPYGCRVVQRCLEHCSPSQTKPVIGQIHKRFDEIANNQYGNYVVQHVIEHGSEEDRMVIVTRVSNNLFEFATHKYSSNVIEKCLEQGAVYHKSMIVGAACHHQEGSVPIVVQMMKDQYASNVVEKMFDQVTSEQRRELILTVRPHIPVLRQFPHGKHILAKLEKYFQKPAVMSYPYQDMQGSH

MUT-4A = biological target: T3, MUT-4A (Caenorhabditis elegans, UniProt Q09487 172-535, N318C;H319R)
T3 sequence: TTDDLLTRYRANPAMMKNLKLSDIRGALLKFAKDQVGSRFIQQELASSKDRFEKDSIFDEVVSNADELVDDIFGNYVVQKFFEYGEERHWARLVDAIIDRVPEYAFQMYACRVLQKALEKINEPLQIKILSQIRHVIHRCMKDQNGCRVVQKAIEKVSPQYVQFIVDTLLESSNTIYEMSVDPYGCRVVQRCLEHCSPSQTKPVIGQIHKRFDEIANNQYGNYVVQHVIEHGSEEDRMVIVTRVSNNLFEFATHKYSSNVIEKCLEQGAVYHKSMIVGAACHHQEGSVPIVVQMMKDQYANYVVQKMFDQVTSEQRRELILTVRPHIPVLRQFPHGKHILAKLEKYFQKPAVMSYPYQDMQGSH

MUT-4C = biological target: T4, MUT-4C (Caenorhabditis elegans, UniProt Q09487 172-535, N318C;H319Y;Q322R)
T4 sequence: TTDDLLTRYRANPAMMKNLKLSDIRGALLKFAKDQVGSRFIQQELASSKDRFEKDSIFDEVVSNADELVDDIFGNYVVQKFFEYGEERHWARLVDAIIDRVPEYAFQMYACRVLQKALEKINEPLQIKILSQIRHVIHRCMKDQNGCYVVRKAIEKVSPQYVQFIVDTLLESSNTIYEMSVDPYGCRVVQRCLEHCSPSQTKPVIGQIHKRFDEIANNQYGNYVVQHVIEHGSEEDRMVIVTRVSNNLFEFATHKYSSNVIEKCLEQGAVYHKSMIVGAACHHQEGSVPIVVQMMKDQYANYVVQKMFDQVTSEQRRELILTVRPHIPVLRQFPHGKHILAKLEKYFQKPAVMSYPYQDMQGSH

MUT-4N = biological target: T5, MUT-4N (Caenorhabditis elegans, UniProt Q09487 172-535, N318A;H319A;Q322A)
T5 sequence: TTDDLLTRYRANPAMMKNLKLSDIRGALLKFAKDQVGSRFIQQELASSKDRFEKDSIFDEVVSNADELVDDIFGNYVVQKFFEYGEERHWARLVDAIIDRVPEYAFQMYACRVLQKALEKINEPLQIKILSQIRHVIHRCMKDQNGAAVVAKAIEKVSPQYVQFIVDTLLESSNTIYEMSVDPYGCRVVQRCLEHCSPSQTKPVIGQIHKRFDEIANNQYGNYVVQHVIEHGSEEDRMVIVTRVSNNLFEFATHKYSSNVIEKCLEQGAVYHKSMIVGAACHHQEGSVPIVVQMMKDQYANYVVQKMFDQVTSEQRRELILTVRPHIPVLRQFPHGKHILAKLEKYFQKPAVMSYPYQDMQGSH

PUF-8 WT (FP) = biological target: T6, PUF-8 WT (FP) (Caenorhabditis elegans, UniProt Q09487 172-535)
T6 sequence: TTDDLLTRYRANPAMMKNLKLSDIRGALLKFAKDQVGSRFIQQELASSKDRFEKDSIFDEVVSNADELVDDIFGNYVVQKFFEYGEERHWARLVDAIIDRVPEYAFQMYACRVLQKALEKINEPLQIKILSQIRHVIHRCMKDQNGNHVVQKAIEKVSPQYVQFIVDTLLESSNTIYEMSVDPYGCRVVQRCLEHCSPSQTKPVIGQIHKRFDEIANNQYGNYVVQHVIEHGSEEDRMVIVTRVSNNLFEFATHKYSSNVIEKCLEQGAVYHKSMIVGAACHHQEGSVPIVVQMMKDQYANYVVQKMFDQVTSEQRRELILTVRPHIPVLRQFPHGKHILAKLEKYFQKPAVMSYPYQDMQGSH

UGUAGAUA (ssRNA) [PBE-5G FAM]
Kd (MUT-4G): 29.8 ± 9.14 nM
binding result (MUT-8G): no binding
Kd (MUT-4A): 9.99 ± 3.11 nM
Kd (MUT-4C): 11.3 ± 3.43 nM
Kd (MUT-4N): 180 ± 22.8 nM
Kd (PUF-8 WT (FP)): 12.8 ± 5.63 nM

UGUACAUA (ssRNA) [PBE-5C FAM]
Kd (MUT-4G): 1350 ± 507 nM
binding result (MUT-8G): no binding
Kd (MUT-4A): 0.64 ± 0.2 nM
Kd (MUT-4C): 2.91 ± 0.36 nM
Kd (MUT-4N): 349 ± 83.2 nM
Kd (PUF-8 WT (FP)): 0.84 ± 1.08 nM

AUACAUGU (ssRNA) [Control RNA FAM]
binding result (MUT-4G): no binding
binding result (MUT-8G): no binding
binding result (MUT-4A): no binding
binding result (MUT-4C): no binding
binding result (MUT-4N): no binding

UGUAUAUA (ssRNA) [PBE-5U FAM]
Kd (MUT-4G): 775 ± 276 nM
binding result (MUT-8G): no binding
Kd (MUT-4A): 5.85 ± 1.64 nM
Kd (MUT-4C): 3.72 ± 0.94 nM
Kd (MUT-4N): 313 ± 58.2 nM
Kd (PUF-8 WT (FP)): 1.27 ± 1.16 nM

GGUACAUA (ssRNA) [PBE-1G FAM]
binding result (MUT-4G): no binding
binding result (MUT-8G): no binding
Kd (MUT-4A): 159 ± 34.1 nM
Kd (MUT-4C): 207 ± 23 nM
binding result (MUT-4N): no binding
Kd (PUF-8 WT (FP)): 128 ± 25.1 nM
